Positions count from the first letter of the chain named. Names may count otherwise. One block for each binder: values may come before it.
What was measured:
[1] = molecular target: T1, recombinant human VEGFR2 extracellular domain (human, UniProt P35968 20-764); experiment: SPR (BIAcore 3000), VEGFR2 amine-coupled to CM5 chip, scVEGF as analyte, 1:1 model
T1 construct: extracellular domain; also called KDR; Flk-1

[2] = molecular target: T2, α5β1 integrin on wild-type K562 cells (UniProt P08648 42-1049; P05556 21-798, limits assumed); experiment: flow cytometry on wild-type K562 cells
T2 construct: whole, on cells

[3] = molecular target: T3, αiibβ3 integrin on transfected K562 cells (UniProt P08514 32-1039; P05106 27-788, limits assumed); experiment: flow cytometry on K562 cells transfected with αiibβ3
T3 construct: whole, on cells

[4] = molecular target: T4, VEGFR2 on SVR angiosarcoma cells (murine cell line) (murine, UniProt P35918 20-1345); experiment: flow cytometry on SVR cells
T4 construct: whole, on cells

[5] = molecular target: T5, human VEGFR2 on cells (PAE/KDR cells, HUVEC) (human, UniProt P35968 20-1356); experiment: flow cytometry titration on PAE/KDR cells, anti-FLAG detection
T5 construct: whole, on cells
T5 sequence (P35968 20-1356): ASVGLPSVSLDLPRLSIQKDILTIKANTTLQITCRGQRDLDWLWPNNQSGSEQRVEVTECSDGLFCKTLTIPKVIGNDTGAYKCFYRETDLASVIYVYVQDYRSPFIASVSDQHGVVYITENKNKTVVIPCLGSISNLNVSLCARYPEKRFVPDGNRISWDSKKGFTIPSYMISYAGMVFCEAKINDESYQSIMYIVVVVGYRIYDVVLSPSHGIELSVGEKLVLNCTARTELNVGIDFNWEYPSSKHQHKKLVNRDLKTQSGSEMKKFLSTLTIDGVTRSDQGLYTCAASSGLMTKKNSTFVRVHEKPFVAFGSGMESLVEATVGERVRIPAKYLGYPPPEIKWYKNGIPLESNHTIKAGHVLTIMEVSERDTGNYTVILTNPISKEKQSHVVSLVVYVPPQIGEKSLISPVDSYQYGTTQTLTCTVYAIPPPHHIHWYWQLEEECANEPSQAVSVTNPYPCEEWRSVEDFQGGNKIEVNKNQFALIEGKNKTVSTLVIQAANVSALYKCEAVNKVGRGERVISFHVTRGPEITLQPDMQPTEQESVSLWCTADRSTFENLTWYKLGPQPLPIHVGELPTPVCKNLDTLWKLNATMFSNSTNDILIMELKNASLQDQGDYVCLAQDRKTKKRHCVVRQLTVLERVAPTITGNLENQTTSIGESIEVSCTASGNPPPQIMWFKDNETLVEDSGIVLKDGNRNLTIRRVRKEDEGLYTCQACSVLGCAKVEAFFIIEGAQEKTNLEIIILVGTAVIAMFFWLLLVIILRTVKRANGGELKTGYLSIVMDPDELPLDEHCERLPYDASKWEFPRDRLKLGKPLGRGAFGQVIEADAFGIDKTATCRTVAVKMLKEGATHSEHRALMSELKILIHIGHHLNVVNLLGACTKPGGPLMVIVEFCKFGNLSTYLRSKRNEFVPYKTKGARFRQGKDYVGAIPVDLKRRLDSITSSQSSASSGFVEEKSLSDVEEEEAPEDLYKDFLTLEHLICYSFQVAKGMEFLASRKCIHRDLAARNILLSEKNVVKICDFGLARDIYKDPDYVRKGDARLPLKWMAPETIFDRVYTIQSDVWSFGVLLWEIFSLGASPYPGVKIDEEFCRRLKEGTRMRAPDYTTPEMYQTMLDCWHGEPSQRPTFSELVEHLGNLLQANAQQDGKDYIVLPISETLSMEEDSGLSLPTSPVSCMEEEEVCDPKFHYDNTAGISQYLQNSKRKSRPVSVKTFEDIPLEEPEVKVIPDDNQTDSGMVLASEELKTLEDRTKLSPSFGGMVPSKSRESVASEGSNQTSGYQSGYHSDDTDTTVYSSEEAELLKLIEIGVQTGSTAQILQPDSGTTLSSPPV

[6] = molecular target: T6, human αvβ3 integrin on cells (human, UniProt P06756 31-1048; P05106 27-788); experiment: flow cytometry on U87MG cells (no VEGFR2; receptor not named by the filing)
T6 construct: whole, on cells; also called avb3; alpha v beta 3
T6 sequence (P06756 31-1048, chain 1 of 2): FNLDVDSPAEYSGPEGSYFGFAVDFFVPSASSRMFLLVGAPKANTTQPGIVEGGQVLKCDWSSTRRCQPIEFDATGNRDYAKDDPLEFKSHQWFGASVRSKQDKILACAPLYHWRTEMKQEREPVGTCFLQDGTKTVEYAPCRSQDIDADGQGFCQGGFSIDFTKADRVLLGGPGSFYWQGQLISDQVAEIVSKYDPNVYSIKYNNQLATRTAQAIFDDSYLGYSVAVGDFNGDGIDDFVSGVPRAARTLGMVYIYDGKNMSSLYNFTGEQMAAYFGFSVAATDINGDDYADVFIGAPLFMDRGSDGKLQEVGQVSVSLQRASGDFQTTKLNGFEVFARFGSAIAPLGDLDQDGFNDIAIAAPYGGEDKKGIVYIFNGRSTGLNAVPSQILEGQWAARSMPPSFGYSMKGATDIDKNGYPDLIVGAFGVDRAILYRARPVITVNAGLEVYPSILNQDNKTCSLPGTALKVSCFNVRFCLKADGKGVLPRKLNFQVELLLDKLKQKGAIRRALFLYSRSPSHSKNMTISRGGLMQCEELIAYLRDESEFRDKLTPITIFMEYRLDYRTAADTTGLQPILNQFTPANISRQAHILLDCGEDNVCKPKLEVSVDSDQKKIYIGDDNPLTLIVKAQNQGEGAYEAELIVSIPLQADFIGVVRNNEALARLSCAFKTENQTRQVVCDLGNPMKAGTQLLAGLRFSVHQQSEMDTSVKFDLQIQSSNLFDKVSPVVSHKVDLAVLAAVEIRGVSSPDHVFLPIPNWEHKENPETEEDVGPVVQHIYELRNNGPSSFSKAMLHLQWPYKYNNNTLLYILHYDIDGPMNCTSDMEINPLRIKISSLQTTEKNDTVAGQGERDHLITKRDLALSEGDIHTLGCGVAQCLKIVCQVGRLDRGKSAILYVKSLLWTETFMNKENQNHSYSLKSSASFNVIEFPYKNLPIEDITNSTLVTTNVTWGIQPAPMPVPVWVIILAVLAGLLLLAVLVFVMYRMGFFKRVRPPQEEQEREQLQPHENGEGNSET
T6 sequence (P05106 27-788, chain 2 of 2): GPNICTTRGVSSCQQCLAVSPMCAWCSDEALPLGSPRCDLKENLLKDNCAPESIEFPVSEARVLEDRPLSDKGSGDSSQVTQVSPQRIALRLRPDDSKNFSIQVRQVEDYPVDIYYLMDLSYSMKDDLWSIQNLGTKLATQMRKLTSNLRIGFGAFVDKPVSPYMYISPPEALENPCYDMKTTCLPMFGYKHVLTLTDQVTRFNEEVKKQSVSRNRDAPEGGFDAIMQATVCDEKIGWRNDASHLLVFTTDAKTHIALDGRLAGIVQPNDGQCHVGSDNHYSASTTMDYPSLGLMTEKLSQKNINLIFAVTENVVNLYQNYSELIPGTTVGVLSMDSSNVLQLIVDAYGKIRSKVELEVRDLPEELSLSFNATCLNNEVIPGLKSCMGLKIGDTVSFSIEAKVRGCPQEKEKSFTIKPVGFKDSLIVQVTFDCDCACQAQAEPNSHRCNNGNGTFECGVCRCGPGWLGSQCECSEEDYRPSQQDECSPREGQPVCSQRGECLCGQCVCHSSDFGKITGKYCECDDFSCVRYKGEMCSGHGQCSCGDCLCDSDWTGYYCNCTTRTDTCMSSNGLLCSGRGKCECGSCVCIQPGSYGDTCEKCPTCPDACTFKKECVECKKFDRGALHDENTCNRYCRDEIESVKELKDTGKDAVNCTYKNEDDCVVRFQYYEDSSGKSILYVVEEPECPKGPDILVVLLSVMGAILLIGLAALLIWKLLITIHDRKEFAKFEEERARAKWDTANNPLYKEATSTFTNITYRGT

[7] = molecular target: T7, αvβ5 integrin on transfected K562 cells (UniProt P06756 31-1048; P18084 24-799, limits assumed); experiment: flow cytometry on K562 cells transfected with αvβ5
T7 construct: whole, on cells
T7 sequence (P06756 31-1048 limits assumed, chain 1 of 2): as the sequence (P06756 31-1048, chain 1 of 2) above
T7 sequence (P18084 24-799 limits assumed, chain 2 of 2): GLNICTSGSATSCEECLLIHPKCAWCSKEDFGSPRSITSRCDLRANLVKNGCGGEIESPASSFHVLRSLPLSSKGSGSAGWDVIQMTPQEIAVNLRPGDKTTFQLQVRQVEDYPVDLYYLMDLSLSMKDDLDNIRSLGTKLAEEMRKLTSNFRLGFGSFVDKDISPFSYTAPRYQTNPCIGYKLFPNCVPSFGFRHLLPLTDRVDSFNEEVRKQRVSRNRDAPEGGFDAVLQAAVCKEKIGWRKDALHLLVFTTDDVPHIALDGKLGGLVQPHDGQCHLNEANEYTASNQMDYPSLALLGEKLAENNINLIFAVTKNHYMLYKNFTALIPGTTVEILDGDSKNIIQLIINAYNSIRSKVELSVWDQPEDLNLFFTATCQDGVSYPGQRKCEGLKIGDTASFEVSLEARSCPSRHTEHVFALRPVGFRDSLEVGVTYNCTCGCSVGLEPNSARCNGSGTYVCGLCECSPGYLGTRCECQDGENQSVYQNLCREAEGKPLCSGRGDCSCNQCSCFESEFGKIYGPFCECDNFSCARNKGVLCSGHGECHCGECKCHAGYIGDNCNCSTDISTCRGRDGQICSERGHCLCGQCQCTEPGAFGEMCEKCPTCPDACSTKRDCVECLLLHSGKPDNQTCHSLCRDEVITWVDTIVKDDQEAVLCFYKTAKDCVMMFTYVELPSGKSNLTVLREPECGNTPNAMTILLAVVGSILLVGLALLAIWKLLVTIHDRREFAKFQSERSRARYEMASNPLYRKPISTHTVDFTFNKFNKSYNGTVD

[8] = molecular target: T8, porcine αvβ3 integrin on PAE cells (porcine, UniProt A0A5K1V6L8 31-1052; A0A8D0RDV2 33-793); experiment: flow cytometry on PAE cells
T8 construct: whole, on cells

[9] = molecular target: T4, VEGFR2 on SVR angiosarcoma cells …; experiment: flow cytometry titration on SVR cells, anti-FLAG detection
[10] = molecular target: T6, human αvβ3 integrin on cells; experiment: flow cytometry on K562-αvβ3 cells
[11] = molecular target: T5, human VEGFR2 on cells (PAE/KDR cells, …); experiment: flow cytometry titration on HUVEC, anti-FLAG detection
[12] = molecular target: T4, VEGFR2 on SVR angiosarcoma cells …; experiment: flow cytometry titration on SVR cells, optimized conditions of Example 3, anti-FLAG detection
[13] = molecular target: T5, human VEGFR2 on cells (PAE/KDR cells, …); experiment: flow cytometry titration on PAE/KDR cells, optimized conditions of Example 3, anti-FLAG detection
[14] = molecular target: T5, human VEGFR2 on cells (PAE/KDR cells, …); experiment: flow cytometry titration on HUVEC, optimized conditions of Example 3, anti-FLAG detection
[15] = molecular target: T6, human αvβ3 integrin on cells; experiment: flow cytometry titration on K562-αvβ3 cells, anti-His detection
[16] = molecular target: VEGFR2 and αvβ3 integrin, both expressed on human umbilical vein endothelial cells (HUVEC) (human) (UniProt P35968); experiment: flow cytometry titration on HUVEC (VEGFR2 and αvβ3 both present), anti-FLAG detection
Sequence of VEGFR2 and αvβ3 integrin, both expressed on human umbilical vein endothelial cells (HUVEC) (human) (P35968 20-1356, chain 1 of 3): as the sequence (P35968 20-1356) above
Sequence of VEGFR2 and αvβ3 integrin, both expressed on human umbilical vein endothelial cells (HUVEC) (human) (P06756 31-1048, chain 2 of 3, further chain): as the sequence (P06756 31-1048, chain 1 of 2) above
Sequence of VEGFR2 and αvβ3 integrin, both expressed on human umbilical vein endothelial cells (HUVEC) (human) (P05106 27-788, chain 3 of 3, further chain): as the sequence (P05106 27-788, chain 2 of 2) above

[17] = molecular target: T6, human αvβ3 integrin on cells; experiment: flow cytometry titration on U87MG cells (no VEGFR2; receptor not named by the filing), anti-FLAG detection
[18] = molecular target: T8, porcine αvβ3 integrin on PAE cells; experiment: flow cytometry titration on PAE cells, anti-FLAG detection
[19] = molecular target: T6, human αvβ3 integrin on cells; experiment: cell-based or functional assay
[20] = molecular target: VEGFR2 and αvβ3 integrin, both expressed on human umbilical vein endothelial cells (HUVEC) (human) (UniProt P35968); experiment: cell-based or functional assay
[21] = molecular target: T5, human VEGFR2 on cells (PAE/KDR cells, …); experiment: flow cytometry titration on PAE/KDR cells (also carry porcine αvβ3; filing ascribes binding to VEGFR2), anti-FLAG detection
[22] = molecular target: VEGFR2 and αvβ3 integrin, both expressed on SVR angiosarcoma cells (murine cell line) (murine) (UniProt P35918); experiment: flow cytometry titration on SVR cells (VEGFR2 and αvβ3 both present), anti-FLAG detection
[23] = molecular target: T6, human αvβ3 integrin on cells; experiment: flow cytometry titration on K562-αvβ3 cells

T1 sequence (P35968 20-764): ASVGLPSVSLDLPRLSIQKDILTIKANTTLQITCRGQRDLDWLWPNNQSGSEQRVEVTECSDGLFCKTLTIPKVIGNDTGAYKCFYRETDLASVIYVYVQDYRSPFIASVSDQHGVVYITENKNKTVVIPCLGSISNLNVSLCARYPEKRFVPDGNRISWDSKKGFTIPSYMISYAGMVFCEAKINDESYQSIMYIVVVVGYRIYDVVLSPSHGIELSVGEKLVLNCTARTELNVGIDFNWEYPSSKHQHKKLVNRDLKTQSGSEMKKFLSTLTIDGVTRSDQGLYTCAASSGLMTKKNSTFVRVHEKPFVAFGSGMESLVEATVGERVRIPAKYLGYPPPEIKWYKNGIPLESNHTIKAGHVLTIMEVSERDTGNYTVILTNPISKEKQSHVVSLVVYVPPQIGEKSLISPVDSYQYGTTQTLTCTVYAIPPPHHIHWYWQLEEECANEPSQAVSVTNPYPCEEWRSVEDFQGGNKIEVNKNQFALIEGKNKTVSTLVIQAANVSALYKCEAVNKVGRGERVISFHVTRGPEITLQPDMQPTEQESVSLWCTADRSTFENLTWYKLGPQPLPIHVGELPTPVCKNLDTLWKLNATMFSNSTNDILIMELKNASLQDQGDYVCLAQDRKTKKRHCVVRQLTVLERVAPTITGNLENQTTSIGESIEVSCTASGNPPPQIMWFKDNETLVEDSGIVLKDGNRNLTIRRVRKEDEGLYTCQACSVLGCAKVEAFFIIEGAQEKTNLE

B2: scVEGFwt (ligand)
chain: YVEVVKFMDVYQRSYCHPIETLVDIFQEYPDEIEYIFKPSCVPLMRCGGCCNDEGLECVPTEESNITMQIMRIKPHQGQHIGEMSFLQHNKCECRPKKDGSTSGSGKSSEGKGEVVKFMDVYQRSYCHPIETLVDIFQEYPDEIEYIFKPSCVPLMRCGGCCNDEGLECVPTEESNITMQIMRIKPHQGQHIGEMSFLQHNKCECRPKKDTR
notes: also called wild-type scVEGF; single-chain VEGF
Kd [9]: 32 nM
Kd [1]: 4 nM
koff [1]: 0.0007 s⁻¹
kon [1]: 200000 M⁻¹ s⁻¹
binding result [10]: no binding (tested: 1 µM)
Kd [5]: 9.8 nM
Kd [11]: 28 nM
binding result [8]: no binding (tested: 1 µM)

B4: scVEGF-mA (designed binder)
chain: EVAKAMDVYQKSYCHPIETLVDILQEYPDEIGYIFKPSCVPLMRCGGCCNDAGLECVPTEESNITMQIMRIKPYQGQHIGEMSFLQHNKCECRPKKDGSTSGSGKSSEGKGEVVKFMDVYQRSYCHPIETLVDIFQEYPDKIEYAFKPSCVPLMRCGGCCNNEGLECVPTEESNITMQITRAKPHQGQHIGEMSFLQHNKCECRPKKD
notes: Soluble protein from P. pastoris with C-terminal hexahistidine tag, with or without N-terminal FLAG tag (tags not included in the parts); also called scVEGFmut-A
Kd [9]: 13 nM
Kd [1]: 2.1 nM
koff [1]: 0.00049 s⁻¹
kon [1]: 240000 M⁻¹ s⁻¹
binding result [2]: no binding
binding result [3]: no binding
Kd [13]: 0.5 nM
Kd [5]: 5.7 nM
binding result [6]: no binding (tested: 1 µM)
Kd [11]: 36 nM
binding result [7]: no binding
binding result [8]: no binding (tested: 1 µM)

B6: scVEGF-mE (designed binder)
chain: B4 chain with A3V, K11R, D51G, Y74H, Q75R, K115R, D140N, K141E, T180M
notes: Soluble protein with C-terminal hexahistidine tag, with or without N-terminal FLAG tag (tags not included in the parts); also called scVEGFmut-E
Kd [12]: 0.7 nM
Kd [9]: 8 nM
Kd [1]: 2.8 nM
koff [1]: 0.00061 s⁻¹
kon [1]: 220000 M⁻¹ s⁻¹
binding result [2]: no binding
binding result [3]: no binding
Kd [13]: 0.9 nM
Kd [5]: 6.6 nM
binding result [6]: no binding (tested: 1 µM)
Kd [11]: 53 nM
binding result [7]: no binding
binding result [8]: no binding (tested: 1 µM)
Kd [14]: 0.4 nM

B8: scVEGFrgd-7H (designed binder)
chain: EVVKAMDVYQRSYCHPIETLVDIFQEYPDEIEYIFKPSCVPLMRCGGCCNDAGLECVPTEESNITMQIMRIKPHQGQHIGEMSFLQHNKCECRPKKDGSTSGSGKSSEGKGEVVKFMDVYQRSYCHPIETLVDIFQEYPDEIEYAFKPSCVPLMRCGGCCNDEGLECVPTEESNITMQIMRPGGRGDSAYHIGEMSFLQHNKCECRPKKDTR
notes: Soluble protein from P. pastoris with C-terminal hexahistidine tag, with or without N-terminal FLAG tag; also called scVEGF-7H
Kd [15]: 36 nM
Kd [16]: 12 nM
Kd [17]: 15.6 nM
Kd [18]: 26.5 nM
binding result [2]: no binding
binding result [3]: no binding
IC50 of inhibition of vitronectin-mediated adhesion of HUVEC cells [19]: < 10 nM
Kd [21]: 16 nM
binding result [7]: no binding
Kd [22]: 18 nM

B10: scVEGFrgd-7B (designed binder)
chain: B8 chain with G183H, G184D, S188A, A189G, Y190V
notes: Soluble protein from P. pastoris with C-terminal hexahistidine tag, with or without N-terminal FLAG tag
Kd [15]: 140 nM
Kd [23]: 143 nM

Continued, values first:

Kd [1]: 3.8 nM
koff [1]: 0.00108 s⁻¹
kon [1]: 290000 M⁻¹ s⁻¹
binding result [2]: no binding
binding result [3]: no binding
binding result [4]: no binding (tested: 1 µM)
Kd [5]: 34 nM
binding result [6]: no binding (tested: 1 µM)
binding result [7]: no binding
binding result [8]: no binding (tested: 1 µM)
B1: scVEGF-mM (designed binder)
chain: EVVKAMDVYRRSYCHPVETSVDILQEYPDEIEYIFKPSCVPLMRCGGCCNDAGLECVPTEESNTTMQIMRIKPYRGQHIGEMSFLQHNKCECRPKKDGSTSGSGKSSEGKGEVVKFMDVYQRSYCHPIETLVDIFQEYPDEIEYAFKPSCVSLMRCGGCCNNEGLECVPTEESNITVQIMGAKPHQGQHIGEMSFLQHNKCECRPKKD
notes: Soluble protein with C-terminal hexahistidine tag, with or without N-terminal FLAG tag (tags not included in the parts); also called scVEGFmut-M

Kd [12]: > 40 nM
Kd [1]: 18 nM
koff [1]: 0.00146 s⁻¹
kon [1]: 83000 M⁻¹ s⁻¹
Kd [13]: 55 nM
Kd [5]: 17 nM
binding result [6]: no binding (tested: 1 µM)
Kd [11]: 101 nM
binding result [8]: no binding (tested: 1 µM)
Kd [14]: 44 nM
B3: scVEGFmut (designed binder)
chain: B2 chain with F7A, E54A, I147A, I184A
notes: scVEGF with chain 1 F17A, E64A and chain 2 I46A, I83A (VEGF121 numbering); Soluble protein from P. pastoris with C-terminal hexahistidine tag, with or without N-terminal FLAG tag

Kd [9]: 3 nM
Kd [1]: 1.6 nM
koff [1]: 0.0003 s⁻¹
kon [1]: 200000 M⁻¹ s⁻¹
binding result [2]: no binding
binding result [3]: no binding
Kd [13]: 0.5 nM
Kd [5]: 6.9 nM
binding result [6]: no binding (tested: 1 µM)
Kd [11]: 39 nM
binding result [7]: no binding
binding result [8]: no binding (tested: 1 µM)
B5: scVEGF-mJ (designed binder)
chain: B4 chain with V2I, A3V, M6R, K11R, G32E, Q77H, K141E, T180M, I190T
notes: Soluble protein with C-terminal hexahistidine tag, with or without N-terminal FLAG tag (tags not included in the parts); also called scVEGFmut-J

Kd [15]: 34 nM
Kd [16]: 6 nM
Kd [17]: 13.9 nM
Kd [18]: 18.6 nM
binding result [2]: no binding
binding result [3]: no binding
IC50 of inhibition of vitronectin-mediated adhesion of HUVEC cells [19]: < 10 nM
inhibition of VEGF-induced autophosphorylation of VEGFR-2 in HUVEC in the presence of vitronectin [20]: 80%
Kd [21]: 20 nM
binding result [7]: no binding
Kd [22]: 37 nM
B7: scVEGFrgd-7I (designed binder)
chain: EVVKAMDVYQRSYCHPIETLVDIFQEYPDEIEYIFKPSCVPLMRCGGCCNDAGLECVPTEESNITMQIMRIKPHQGQHIGEMSFLQHNKCECRPKKDGSTSGSGKSSEGKGEVVKFMDVYQRSYCHPIETLVDIFQEYPDEIEYAFKPSCVPLMRCGGCCNDEGLECVPTEESNITMQIMRPSVRRGDSPASHIGEMSFLQHNKCECRPKKDTR
notes: Soluble protein from P. pastoris with C-terminal hexahistidine tag, with or without N-terminal FLAG tag; also called scVEGF-7I

Kd [15]: 37 nM
Kd [16]: 45 nM
Kd [17]: 29 nM
Kd [18]: 26.9 nM
binding result [2]: no binding
binding result [3]: no binding
IC50 of inhibition of vitronectin-mediated adhesion of HUVEC cells [19]: < 10 nM
Kd [21]: 21 nM
binding result [7]: no binding
Kd [22]: 31 nM
B9: scVEGFrgd-7P (designed binder)
chain: B8 chain with G183A, G184S, A189P, Y190P
notes: Soluble protein from P. pastoris with C-terminal hexahistidine tag, with or without N-terminal FLAG tag; also called scVEGF-7P

— patent US20160039895A1 (published 2016)
